Assay results from article PMC2991499.
Changes are numbered by the printed parent chain.

Experiments:
Experiment in all cases: EMSA
[1] = molecular target: T1, RB69 DNA polymerase gp43 Pol+ Exo+ (wild type) (bacteriophage RB69, UniProt Q38087 1-903)
T1 sequence: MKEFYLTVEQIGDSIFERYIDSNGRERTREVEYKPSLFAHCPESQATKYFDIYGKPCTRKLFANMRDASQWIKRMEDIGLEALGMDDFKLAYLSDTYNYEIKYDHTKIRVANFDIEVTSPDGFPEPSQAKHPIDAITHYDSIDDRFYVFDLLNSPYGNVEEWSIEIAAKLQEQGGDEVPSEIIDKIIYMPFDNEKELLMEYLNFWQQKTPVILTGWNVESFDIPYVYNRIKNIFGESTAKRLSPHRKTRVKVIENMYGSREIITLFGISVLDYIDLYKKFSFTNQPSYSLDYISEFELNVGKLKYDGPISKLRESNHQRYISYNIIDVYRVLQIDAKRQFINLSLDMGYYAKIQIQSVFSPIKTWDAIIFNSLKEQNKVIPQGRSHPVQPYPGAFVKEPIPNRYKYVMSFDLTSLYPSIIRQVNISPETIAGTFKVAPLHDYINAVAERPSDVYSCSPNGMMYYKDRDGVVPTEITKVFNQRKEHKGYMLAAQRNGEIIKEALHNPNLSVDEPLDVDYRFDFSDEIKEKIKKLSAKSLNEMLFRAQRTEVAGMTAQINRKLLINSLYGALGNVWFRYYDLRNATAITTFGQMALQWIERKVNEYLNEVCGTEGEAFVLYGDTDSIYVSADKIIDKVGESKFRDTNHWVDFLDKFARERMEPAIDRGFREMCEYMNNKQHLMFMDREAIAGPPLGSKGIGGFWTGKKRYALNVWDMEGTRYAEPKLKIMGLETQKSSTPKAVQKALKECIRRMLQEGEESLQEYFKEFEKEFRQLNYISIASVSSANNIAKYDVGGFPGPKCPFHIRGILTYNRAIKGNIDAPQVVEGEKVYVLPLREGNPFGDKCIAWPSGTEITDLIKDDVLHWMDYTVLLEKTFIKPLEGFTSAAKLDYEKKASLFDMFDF

[2] = molecular target: T2, RB69 DNA polymerase gp43 PolS565G Exo+ (bacteriophage RB69, UniProt Q38087 1-903, S565G)
T2 sequence: T1 sequence with S565G

[3] = molecular target: T3, RB69 DNA polymerase gp43 PolS565G/Y567A Exo+ (bacteriophage RB69, UniProt Q38087 1-903, S565G;Y567A)
T3 sequence: T1 sequence with S565G, Y567A

[4] = molecular target: T4, RB69 DNA polymerase gp43 PolY567A Exo+ (bacteriophage RB69, UniProt Q38087 1-903, Y567A)
T4 sequence: T1 sequence with Y567A

B1: normal dsDNA primer/template 20/35-mer (dsDNA)
DNA 1: TTTGATGTATTATCAATTGT
DNA 2: TGCCTTCGTAATCTTACAATTGATAATACATCAAA
- Kd [1]: 6.9 ± 2.1 nM
- Kd [2]: 38.9 ± 3.4 nM
- Kd [3]: 29.9 ± 1.9 nM
- Kd [4]: 13.2 ± 1.4 nM

B2: mismatched dsDNA primer/template 20/30-mer, terminal T·G (dsDNA)
DNA 1: ATGTGCTGCAAGGCGATTAG
DNA 2: GTTACCCAACTTAATCGCCTTGCAGCACAT
- Kd [1]: 38.2 ± 4.3 nM
- Kd [2]: 132 ± 5.7 nM
- Kd [3]: 79.9 ± 4.8 nM
- Kd [4]: 25.7 ± 3.2 nM
